Experimental data as given in article PMC6086316.

Experiments:
[1] = target: recombinant mature interleukin-8 (IL-8) (human); experiment: time-resolved fluorometric immunoassay (TRFIA); 60 pmol IL-8 or IL-1β coated on wells; emHofQ wild type and mutants 5 nM-2 μM, 4°C overnight; Eu-N1 anti-6xHis antibody; apparent Kd
[2] = target: recombinant emHofQ (without a His tail) (Aggregatibacter actinomycetemcomitans); experiment: thermal shift assay (differential scanning fluorometry); PBS, SYPRO orange; 5 μM emHofQ with 5-200 μM IL-8, or 5 μM IL-1β with 2.5-50 μM emHofQ; heated 20-99°C
[3] = target: N-His-emHofQ (Aggregatibacter actinomycetemcomitans); experiment: SPR; Biacore X; N-His-emHofQ coupled to Ni-NTA chip (115-199 RU); IL-8 injected at 1-15 000 nM, 30 μl/min; 10 mM HEPES, 150 mM NaCl, 0.005% P-20, pH 7.4; one-site binding model; apparent
[4] = target: human mature interleukin-1β (IL-1β, amino acids 117-269) (human); experiment: thermal shift assay (differential scanning fluorometry); PBS, SYPRO orange; 5 μM emHofQ with 5-200 μM IL-8, or 5 μM IL-1β with 2.5-50 μM emHofQ; heated 20-99°C
Chain of human mature interleukin-1β (IL-1β, amino acids 117-269) (human) (P01584 117-269): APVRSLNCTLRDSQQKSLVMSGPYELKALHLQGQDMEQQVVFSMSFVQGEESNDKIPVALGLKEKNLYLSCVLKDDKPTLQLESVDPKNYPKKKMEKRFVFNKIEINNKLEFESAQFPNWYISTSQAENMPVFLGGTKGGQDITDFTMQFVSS

[5] = target: human mature interleukin-1β (IL-1β, amino acids 117-269) (human); experiment: time-resolved fluorometric immunoassay (TRFIA); 60 pmol IL-8 or IL-1β coated on wells; emHofQ wild type and mutants 5 nM-2 μM, 4°C overnight; Eu-N1 anti-6xHis antibody; apparent Kd
[6] = target: human mature interleukin-1β (IL-1β, amino acids 117-269) (human); experiment: time-resolved fluorometric immunoassay (TRFIA); 6 pmol IL-8 or IL-1β coated on wells; C-His-emHofQ 10-740 nM in Delfia Assay Buffer, RT 1 h; Eu-N1 anti-6xHis antibody; one-to-one fit
[7] = target: recombinant mature interleukin-8 (IL-8) (human); experiment: as above
[8] = target: human mature interleukin-1β (IL-1β, amino acids 117-269) (human); experiment: ELISA; cytokines (6 pmol per well) coated on Maxisorp plates; 490 nM emHofQ with C-terminal 8-His tail in PBS, 4°C overnight; detection with His-Probe-HRP; values compared with BSA control
[9] = target: recombinant mature interleukin-8 (IL-8) (human); experiment: as above

Which Kd [1] does the source give for “emHofQ_L2 (D165A, R166A) (domain or fragment)” here?
The Kd was 110 nM.

“emHofQ_L1L2 (H136A, F137A, K139A, D165A, R166A) (domain or fragment)” was tested. Which Kd [1] did it give?
The Kd was 200 nM.

What does the source list for “recombinant mature interleukin-8 (IL-8) (natural protein)”?
Tm of emHofQ with 200 μM IL-8 (45.3°C without) [2]: 51.7 °C; Kd [3]: 2400 nM

“emHofQ_L1 (H136A, F137A, K139A) (domain or fragment)” was tested. Which Kd [1] did it give?
Its Kd is 190 nM.

Which Tm of IL-1β with 50 μM emHofQ (60.2°C without) [4] does the source give for “recombinant emHofQ (without a His tail) (domain or fragment)” here?
Its Tm of IL-1β with 50 μM emHofQ (60.2°C without) is 55.8 °C.

How did the Kd [5] turn out when “C-His emHofQ (extramembranous domain of the secretin HofQ, C-terminal His tag) (domain or fragment)” was run?
The Kd was 90 nM.

What about the Kd [1] of the same substance?
Its Kd is 44 nM.

What about the Kd [6] of the same substance?
Its Kd is 140 nM.

What about the Kd [7] of the same substance?
Its Kd is 43 nM.

What about the fold binding over the control (BSA) [8] of the same substance?
The fold binding over the control (BSA) was 1.3 fold.

What about the fold binding over the control (BSA) [9] of the same substance?
The fold binding over the control (BSA) was 4 fold.
